Data published in the supplement of paper PMC10567573.

B1: KRT33B (parent)
chain: YQSYFKTIEELQQKILCSKSENAR

Variants of: B1
Assay: protein stability index of a GFP-peptide fusion (GPS, HEK-293T) (PSI 1-6); higher = more stable
Details: c terminus: a fixed tail appended
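Also: lentivirally expressed fusions sorted by FACS into six bins by GFP to DsRed ratio, PSI derived from sequencing read proportions per bin multiplied by bin number.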

Variant | protein stability index
YQRYFKTIEELQQKILCSKSENAR | 1.25
YQGYFKTIEELQQKILCSKSENAR | 1.33
YQSGFKTIEELQQKILCSKSENAR | 2.08
YQSNFKTIEELQQKILCSKSENAR | 1.85
YQSYFKTIEELQQKILCSKSEVAR | 1.89
YQSYFKTIEELQQKILCSKSESAR | 2.5
YQSYFKTIEELQQKILCSKSEWAR | 1.9
YQSYFKTIEELQQKILCVKSENAR | 1.73
YQSYFKTIEELQQKILCYKSENAR | 2.21
YQSYFKTIEELQQKILCGKSENAR | 2.21
YQSYFKTIEELQQKILCLKSENAR | 1.79
YQSYFKTIFELQQKILCSKSENAR | 1.53
YQSYFKTIDELQQKILCSKSENAR | 1.9
YQSYFKTIAELQQKILCSKSENAR | 1.98
YQSYFKTISELQQKILCSKSENAR | 2.99
YQSYFKTIWELQQKILCSKSENAR | 1.71
YQSYFKTIHELQQKILCSKSENAR | 2.25
YQSYFKTIRELQQKILCSKSENAR | 2.99
YQSYFKTIEELQAKILCSKSENAR | 1.79
YQSYFKTIEELQTKILCSKSENAR | 2.23
YQSYFKTIEELQMKILCSKSENAR | 1.4
YQSYFKTIEELQFKILCSKSENAR | 2.04
YQSYFKTIEELQRKILCSKSENAR | 1.68
YQSYFKTIEELQIKILCSKSENAR | 1.35

Variant | protein stability index
YQSYFKTIEELQGKILCSKSENAR | 2.09
YQSYFNTIEELQQKILCSKSENAR | 1.88
YQSYFGTIEELQQKILCSKSENAR | 1.5
YQSYFFTIEELQQKILCSKSENAR | 2.25
YQSYFSTIEELQQKILCSKSENAR | 2.59
YQSYFKTIEELQQKILCSWSENAR | 1.57
YQSYFKTIEELQQKILCSASENAR | 1.72
YQSYFKTIEELQQKILCSVSENAR | 1.7
YQSYFKTIEELQQKILCSPSENAR | 2.14
YQSYFKTIEELQQKIKCSKSENAR | 2.39
YQSYFKTIEELQQKIWCSKSENAR | 2.1
YQSYFKTIEELQQKIHCSKSENAR | 1.96
YQSYFKTIEELQQKIVCSKSENAR | 2.89
YQSYMKTIEELQQKILCSKSENAR | 3.48
YQSYGKTIEELQQKILCSKSENAR | 2.92
YQSYPKTIEELQQKILCSKSENAR | 2.17
YQSYLKTIEELQQKILCSKSENAR | 2.07
YQSYEKTIEELQQKILCSKSENAR | 3.79
YQSYFKTIEYLQQKILCSKSENAR | 2.52
YQSYFKTIELLQQKILCSKSENAR | 1.63
YQSYFKTIETLQQKILCSKSENAR | 1.87
YQSYFKTIEILQQKILCSKSENAR | 1.66
YQSYFKTIEELMQKILCSKSENAR | 1.53
YQSYFKTIEELLQKILCSKSENAR | 1.79

Variant | protein stability index
YQSYFKTIEELWQKILCSKSENAR | 1.91
YQSYFKTIEELCQKILCSKSENAR | 1.58
YQSYFKIIEELQQKILCSKSENAR | 1.97
YQSYFKFIEELQQKILCSKSENAR | 2.11
YQSYFKVIEELQQKILCSKSENAR | 2.25
YQSYFKSIEELQQKILCSKSENAR | 1.73
YQSYFKAIEELQQKILCSKSENAR | 2.21
YKSYFKTIEELQQKILCSKSENAR | 3.17
YWSYFKTIEELQQKILCSKSENAR | 2.15
YMSYFKTIEELQQKILCSKSENAR | 2.65
YQSYFKTIEELQQKILCSKSENLR | 1.73
YQSYFKTIEELQQKILCSKSENQR | 2.36
YQSYFKTIEELQQKILCSKSENWR | 1.57
YQSYFKTIEELQQKCLCSKSENAR | 3.74
YQSYFKTIEEWQQKILCSKSENAR | 2.2
YQSYFKTIEEFQQKILCSKSENAR | 1.75
YQSYFKTIEECQQKILCSKSENAR | 1.53
YQSYFKTIEEVQQKILCSKSENAR | 2.01
YQSYFKTIEERQQKILCSKSENAR | 1.62
YQSYFKTIEEMQQKILCSKSENAR | 1.6
YQSYFKTIEEAQQKILCSKSENAR | 2.41
YQSYFKTIEELQQKILCSKSKNAR | 1.79
YQSYFKTIEELQQKILCSKSYNAR | 1.75
YQSYFKTIEELQQKILCSKSPNAR | 1.8

Variant | protein stability index
YQSYFKTIEELQQKILCSKSQNAR | 2.1
YQSYFKTIEELQQKILCSKSENAQ | 2.34
YQSYFKTIEELQQKILCSKSENAY | 1.3
YQSYFKTIEELQQKILCSKSENAK | 1.84
YQSYFKTIEELQQKILCSKSENAT | 1.76
YQSYFKTIEELQQKILCSKLENAR | 1.73
YQSYFKTIEELQQKILCSKEENAR | 1.65
YQSYFKTSEELQQKILCSKSENAR | 1.51
YQSYFKTWEELQQKILCSKSENAR | 1.94
YQSYFKTLEELQQKILCSKSENAR | 2.41
YQSYFKTPEELQQKILCSKSENAR | 2.78
EQSYFKTIEELQQKILCSKSENAR | 3.49
MQSYFKTIEELQQKILCSKSENAR | 3.08
LQSYFKTIEELQQKILCSKSENAR | 1.89
YQSYFKTIEELQQEILCSKSENAR | 1.82
YQSYFKTIEELQQLILCSKSENAR | 2.14
YQSYFKTIEELQQWILCSKSENAR | 3.51
YQSYFKTIEELQQTILCSKSENAR | 1.56
YQSYFKTIEELQQKILQSKSENAR | 1.89
YQSYFKTIEELQQKILVSKSENAR | 1.72
YQSYFKTIEELQQKILKSKSENAR | 2.19
YQSYFKTIEELQQKILLSKSENAR | 2.87
